In patent US20140072613A1, “Compositions and Methods for Treating Cutaneous Scarring” (priority 2012, published 2014):

What was measured:
Assay in all cases: cell-based or functional assay
JNK3(h) (human) = JNK3(h) (human) (UniProt P53779)
ARK5(h) (human) = biological target: T1, ARK5(h) (human) (UniProt O60285)
T1 sequence (looked up): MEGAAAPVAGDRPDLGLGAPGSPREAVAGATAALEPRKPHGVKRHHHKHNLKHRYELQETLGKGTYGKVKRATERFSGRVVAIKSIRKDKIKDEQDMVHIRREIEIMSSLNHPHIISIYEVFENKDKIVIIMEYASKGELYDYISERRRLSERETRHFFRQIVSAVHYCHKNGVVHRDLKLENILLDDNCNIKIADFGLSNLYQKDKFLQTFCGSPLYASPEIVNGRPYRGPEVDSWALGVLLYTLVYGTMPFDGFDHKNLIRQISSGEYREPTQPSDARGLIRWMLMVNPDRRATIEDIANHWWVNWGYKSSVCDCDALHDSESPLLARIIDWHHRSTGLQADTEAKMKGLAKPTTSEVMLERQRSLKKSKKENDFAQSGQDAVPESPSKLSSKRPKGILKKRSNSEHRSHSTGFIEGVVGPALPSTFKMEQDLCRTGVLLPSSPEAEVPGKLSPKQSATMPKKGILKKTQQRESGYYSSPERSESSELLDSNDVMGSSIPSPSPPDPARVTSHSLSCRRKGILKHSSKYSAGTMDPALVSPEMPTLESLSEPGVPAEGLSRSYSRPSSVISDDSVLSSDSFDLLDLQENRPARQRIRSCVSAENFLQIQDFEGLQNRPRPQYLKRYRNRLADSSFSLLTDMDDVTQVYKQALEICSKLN

CDK3/cyclinE(h) (human) = CDK3/cyclinE(h) (human) (UniProt Q00526)
BrSK2(h) (human) = biological target: T2, BrSK2(h) (human) (UniProt Q8IWQ3)
T2 sequence (looked up): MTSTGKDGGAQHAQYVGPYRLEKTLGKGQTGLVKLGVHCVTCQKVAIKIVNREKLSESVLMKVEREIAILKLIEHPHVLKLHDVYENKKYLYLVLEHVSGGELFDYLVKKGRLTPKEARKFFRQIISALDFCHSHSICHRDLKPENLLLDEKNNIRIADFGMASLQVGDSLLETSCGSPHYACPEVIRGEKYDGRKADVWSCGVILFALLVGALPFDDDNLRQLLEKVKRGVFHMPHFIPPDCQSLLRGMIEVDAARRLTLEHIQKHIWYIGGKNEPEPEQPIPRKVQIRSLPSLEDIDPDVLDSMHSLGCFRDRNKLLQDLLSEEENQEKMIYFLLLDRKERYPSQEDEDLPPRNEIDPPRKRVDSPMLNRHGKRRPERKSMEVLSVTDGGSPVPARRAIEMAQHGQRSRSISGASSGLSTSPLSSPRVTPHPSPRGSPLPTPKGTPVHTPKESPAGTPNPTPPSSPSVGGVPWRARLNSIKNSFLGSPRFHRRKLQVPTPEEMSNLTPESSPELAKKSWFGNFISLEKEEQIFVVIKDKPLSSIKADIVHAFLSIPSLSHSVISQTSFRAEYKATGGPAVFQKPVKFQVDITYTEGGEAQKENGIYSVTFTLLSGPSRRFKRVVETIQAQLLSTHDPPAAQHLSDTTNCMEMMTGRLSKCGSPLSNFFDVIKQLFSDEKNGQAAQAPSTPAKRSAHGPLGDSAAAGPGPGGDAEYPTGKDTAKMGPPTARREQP

MAPKAP-K3(h) (human) = MAPKAP-K3(h) (human) (UniProt Q16644)
mTOR(h) (human) = mTOR(h) (human) (UniProt P42345)
Flt3(D835Y)(h) (human) = biological target: T3, Flt3(D835Y)(h) (human) (UniProt P36888)
T3 sequence (looked up): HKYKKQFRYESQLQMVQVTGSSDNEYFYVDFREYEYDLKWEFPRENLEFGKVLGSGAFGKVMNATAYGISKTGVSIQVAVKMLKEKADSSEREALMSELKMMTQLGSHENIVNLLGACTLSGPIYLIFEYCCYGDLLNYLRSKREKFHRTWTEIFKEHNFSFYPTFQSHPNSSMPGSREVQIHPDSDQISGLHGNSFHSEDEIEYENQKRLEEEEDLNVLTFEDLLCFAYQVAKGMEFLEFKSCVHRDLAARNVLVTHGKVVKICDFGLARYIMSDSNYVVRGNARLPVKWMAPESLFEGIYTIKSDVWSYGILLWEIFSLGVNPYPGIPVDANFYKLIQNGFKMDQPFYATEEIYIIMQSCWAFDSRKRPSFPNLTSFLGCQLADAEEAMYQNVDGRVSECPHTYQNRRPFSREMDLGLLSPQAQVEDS

CHK2(R145W)(h) (human) = CHK2(R145W)(h) (human) (UniProt O96017)
NEK3(h) (human) = biological target: T4, NEK3(h) (human) (UniProt P51956)
T4 sequence (looked up): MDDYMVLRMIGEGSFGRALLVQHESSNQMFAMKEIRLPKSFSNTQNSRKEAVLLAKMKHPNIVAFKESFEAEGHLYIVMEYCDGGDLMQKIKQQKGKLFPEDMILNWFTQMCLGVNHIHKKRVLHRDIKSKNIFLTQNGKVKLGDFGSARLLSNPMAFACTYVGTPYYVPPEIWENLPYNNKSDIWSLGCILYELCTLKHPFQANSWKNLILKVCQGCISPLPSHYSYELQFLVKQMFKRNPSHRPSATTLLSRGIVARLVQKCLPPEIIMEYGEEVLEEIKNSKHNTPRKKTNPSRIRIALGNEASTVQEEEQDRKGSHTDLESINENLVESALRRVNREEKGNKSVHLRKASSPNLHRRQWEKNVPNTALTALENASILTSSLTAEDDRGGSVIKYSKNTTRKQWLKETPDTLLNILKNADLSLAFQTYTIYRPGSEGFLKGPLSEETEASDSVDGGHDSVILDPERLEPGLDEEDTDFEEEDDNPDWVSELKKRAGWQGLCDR

FGFR3(h) (human) = FGFR3(h) (human) (UniProt P22607)
PKBα(h) (human) = PKBα(h) (human) (UniProt P31749)
PKBα(h) (human), sequence (P31749 whole entry): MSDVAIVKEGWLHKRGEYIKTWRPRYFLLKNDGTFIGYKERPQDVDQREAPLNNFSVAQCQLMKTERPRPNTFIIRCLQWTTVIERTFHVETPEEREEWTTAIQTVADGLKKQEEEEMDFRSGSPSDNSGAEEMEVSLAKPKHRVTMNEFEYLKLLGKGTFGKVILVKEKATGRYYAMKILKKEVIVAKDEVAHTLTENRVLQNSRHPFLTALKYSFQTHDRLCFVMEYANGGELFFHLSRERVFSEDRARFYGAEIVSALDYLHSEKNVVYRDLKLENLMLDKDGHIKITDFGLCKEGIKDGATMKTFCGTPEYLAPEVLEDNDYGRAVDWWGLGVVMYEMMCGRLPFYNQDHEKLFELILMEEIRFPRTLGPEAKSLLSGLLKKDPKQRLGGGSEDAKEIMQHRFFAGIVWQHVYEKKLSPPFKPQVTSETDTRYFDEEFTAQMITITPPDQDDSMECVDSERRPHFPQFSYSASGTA

MAPKAP-K3(h) (human), sequence (Q16644 whole entry): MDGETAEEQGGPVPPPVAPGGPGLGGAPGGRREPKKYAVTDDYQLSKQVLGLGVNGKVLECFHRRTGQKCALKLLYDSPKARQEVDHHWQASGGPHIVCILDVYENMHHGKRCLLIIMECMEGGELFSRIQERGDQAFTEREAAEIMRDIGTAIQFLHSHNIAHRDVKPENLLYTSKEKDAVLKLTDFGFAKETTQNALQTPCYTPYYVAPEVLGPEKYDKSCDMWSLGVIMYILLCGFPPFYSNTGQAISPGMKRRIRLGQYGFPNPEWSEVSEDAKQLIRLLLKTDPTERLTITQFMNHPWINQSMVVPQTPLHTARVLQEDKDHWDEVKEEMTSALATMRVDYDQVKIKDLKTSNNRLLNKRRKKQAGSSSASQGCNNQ
FGFR3(h) (human), sequence (P22607 397-806 limits assumed): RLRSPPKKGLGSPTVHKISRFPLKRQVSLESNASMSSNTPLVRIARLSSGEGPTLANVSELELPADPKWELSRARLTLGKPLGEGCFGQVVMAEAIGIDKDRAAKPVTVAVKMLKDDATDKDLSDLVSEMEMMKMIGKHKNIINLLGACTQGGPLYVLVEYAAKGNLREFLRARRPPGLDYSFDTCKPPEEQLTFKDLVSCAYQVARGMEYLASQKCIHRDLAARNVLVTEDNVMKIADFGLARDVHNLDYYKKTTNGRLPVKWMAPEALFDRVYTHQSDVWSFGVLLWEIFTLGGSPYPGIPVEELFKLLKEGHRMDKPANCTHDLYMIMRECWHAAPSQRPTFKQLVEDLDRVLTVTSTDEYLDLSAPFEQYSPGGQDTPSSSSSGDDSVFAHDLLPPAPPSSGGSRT
JNK3(h) (human), sequence (P53779 whole entry): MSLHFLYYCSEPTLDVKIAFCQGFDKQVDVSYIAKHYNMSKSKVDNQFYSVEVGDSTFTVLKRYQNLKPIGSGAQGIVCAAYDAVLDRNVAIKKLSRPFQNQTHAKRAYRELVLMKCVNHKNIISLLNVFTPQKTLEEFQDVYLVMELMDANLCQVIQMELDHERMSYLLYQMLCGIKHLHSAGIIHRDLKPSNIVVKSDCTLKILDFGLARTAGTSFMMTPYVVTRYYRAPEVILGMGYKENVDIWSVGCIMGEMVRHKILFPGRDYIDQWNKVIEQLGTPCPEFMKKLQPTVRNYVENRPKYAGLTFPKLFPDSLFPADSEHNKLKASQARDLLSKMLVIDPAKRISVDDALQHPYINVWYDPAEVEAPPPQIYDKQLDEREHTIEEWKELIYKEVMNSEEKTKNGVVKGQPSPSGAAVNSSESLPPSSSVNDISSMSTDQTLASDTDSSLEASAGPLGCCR
CHK2(R145W)(h) (human), sequence (O96017 5-543 R145W limits assumed): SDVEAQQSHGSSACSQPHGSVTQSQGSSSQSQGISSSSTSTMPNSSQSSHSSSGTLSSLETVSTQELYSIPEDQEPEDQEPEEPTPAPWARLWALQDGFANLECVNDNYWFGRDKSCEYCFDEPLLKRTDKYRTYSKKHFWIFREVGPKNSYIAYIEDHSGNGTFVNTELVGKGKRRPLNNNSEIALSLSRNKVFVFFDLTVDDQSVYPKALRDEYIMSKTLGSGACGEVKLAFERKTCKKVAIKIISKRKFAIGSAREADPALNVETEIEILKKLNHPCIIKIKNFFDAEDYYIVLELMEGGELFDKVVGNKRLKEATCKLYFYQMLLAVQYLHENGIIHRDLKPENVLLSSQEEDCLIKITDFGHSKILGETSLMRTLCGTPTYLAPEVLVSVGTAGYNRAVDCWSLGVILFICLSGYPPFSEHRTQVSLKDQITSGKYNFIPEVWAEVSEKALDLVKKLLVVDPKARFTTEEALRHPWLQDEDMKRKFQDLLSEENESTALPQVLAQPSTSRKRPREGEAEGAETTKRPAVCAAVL
mTOR(h) (human), sequence (P42345 1362-2549 limits assumed): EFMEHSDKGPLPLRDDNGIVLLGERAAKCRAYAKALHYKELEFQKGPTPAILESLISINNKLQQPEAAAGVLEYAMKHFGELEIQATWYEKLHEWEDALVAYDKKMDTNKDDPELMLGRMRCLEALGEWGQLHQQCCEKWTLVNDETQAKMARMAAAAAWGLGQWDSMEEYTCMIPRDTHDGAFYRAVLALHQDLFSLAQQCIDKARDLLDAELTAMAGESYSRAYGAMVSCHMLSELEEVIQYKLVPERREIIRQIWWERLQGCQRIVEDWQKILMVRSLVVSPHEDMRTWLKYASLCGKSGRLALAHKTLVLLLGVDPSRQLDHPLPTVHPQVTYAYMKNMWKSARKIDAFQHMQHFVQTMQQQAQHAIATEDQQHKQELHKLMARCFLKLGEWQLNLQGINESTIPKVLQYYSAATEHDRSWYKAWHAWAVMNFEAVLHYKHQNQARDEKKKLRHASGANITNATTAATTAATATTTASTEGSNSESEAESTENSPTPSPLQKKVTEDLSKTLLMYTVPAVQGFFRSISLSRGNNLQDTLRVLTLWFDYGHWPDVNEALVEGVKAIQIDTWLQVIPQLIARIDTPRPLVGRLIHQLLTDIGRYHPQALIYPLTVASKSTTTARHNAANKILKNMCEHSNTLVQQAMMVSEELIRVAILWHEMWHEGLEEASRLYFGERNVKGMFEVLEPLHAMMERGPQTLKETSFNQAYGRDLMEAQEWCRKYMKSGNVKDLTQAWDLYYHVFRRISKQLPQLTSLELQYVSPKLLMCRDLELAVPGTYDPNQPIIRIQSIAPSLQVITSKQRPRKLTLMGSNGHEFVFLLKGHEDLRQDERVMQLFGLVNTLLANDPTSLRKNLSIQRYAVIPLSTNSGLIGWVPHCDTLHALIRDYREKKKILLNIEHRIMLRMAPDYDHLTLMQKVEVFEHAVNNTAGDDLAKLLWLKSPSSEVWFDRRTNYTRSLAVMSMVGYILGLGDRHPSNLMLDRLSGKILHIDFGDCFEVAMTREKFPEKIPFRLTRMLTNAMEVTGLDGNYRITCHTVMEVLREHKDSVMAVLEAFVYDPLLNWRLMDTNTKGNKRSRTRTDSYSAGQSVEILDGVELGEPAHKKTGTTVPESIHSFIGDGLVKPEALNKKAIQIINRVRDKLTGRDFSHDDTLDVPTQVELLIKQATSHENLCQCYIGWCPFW

MMI-0500 (peptide) gave a % activity, 100 µM (JNK3(h) (human)) of 171%, a % activity, 100 µM (ARK5(h) (human)) of 20% and a % activity, 100 µM (CDK3/cyclinE(h) (human)) of 8%. For the same substance, the % activity, 100 µM (BrSK2(h) (human)) was 84%, the % activity, 100 µM (MAPKAP-K3(h) (human)) was 9% and the inhibition of kinase activity at 100 µM (MAPKAP-K3(h) (human)) was greater than 65%. The % activity, 100 µM (mTOR(h) (human)) was 135%, the % activity, 100 µM (Flt3(D835Y)(h) (human)) was 65% and the % activity, 100 µM (CHK2(R145W)(h) (human)) was 3%. For the same substance, the % activity, 100 µM (NEK3(h) (human)) was 20%, the % activity, 100 µM (FGFR3(h) (human)) was 10% and the % activity, 100 µM (PKBα(h) (human)) was 30%.
